Assay results: patent publication CN116284427A (SUNSHINE GUOJIAN PHARMACEUTICAL SHANGHAI CO LTD, dated 2023)
“And” between values parts separate entries of the source, which are not always exact repeats. Equal entries are not always repeated.

B1: 27A3人源化抗体(hu-27A3) (antibody, human IgG1, kappa, V domains shown)
VH: QVQLVQSGAEVKKPGASVKVSCKASGYSFTIYWMHWVRQAPGQGLEWIGMSHPSDSESRLNQKFKDRATLTVDKSTSTAYMELSSLRSEDTAVYYCSRPYYGSSAWFADWGQGTLVTVSA
VL: DIVMTQSPDSLAVSLGERATINCKSSQSLLNSSNQKNYLAWYQQKPGQSPKLLIYFASTRESGVPDRFSGSGSGTDFTLTISSLQAEDVAVYYCQQHYSFPLTFGAGTKLELRR
notes: Humanized anti-MUC17 IgG1/kappa, made in HEK-293E; also called 抗MUC17的人源化单克隆抗体
B2: anti-MUC17×CD3 BsAb CM5 (bispecific antibody, human IgG1, kappa)
heavy: not shown
light: QAVVTQEPSLTVSPGGTVTLTCRSSTGAVTTSNYANWVQQKPGQAPRGLIGGTNKRAPGVPARFSGSLLGGKAALTLSGAQPEDEAEYYCALWYSNLWVFGQGTKVEIKRTVAAPSVFIFPPSDEQLKSGTASVVCLLNNFYPREAKVQWKVDNALQSGNSQESVTEQDSKDSTYSLSSTLTLSKADYEKHKVYACEVTHQGLSSPVTKSFNRGEC
B3: anti-MUC17×CD3 BsAb CM7 (bispecific antibody, human IgG1, kappa)
heavy: not shown
light: B2 light
B4: anti-MUC17×CD3 BsAb CM8 (bispecific antibody, human IgG1, kappa)
heavy: not shown
light: B2 light
B5: anti-MUC17×CD3 BsAb CM6 (bispecific antibody, human IgG1, kappa)
heavy: not shown
light: B2 light
B6: 人源化抗CD3抗体huSP34 (antibody, human IgG1, kappa, V domains shown)
VH: EVQLVESGGGLVQPGGSLRLSCAASGFTFNTYAMNWVRQAPGKGLEWVARIRSKYNNYATYYADSVKDRFTISRDDSKNTLYLQMNSLRAEDTAVYYCVRHGNFGNSYVSWFAYWGQGTLVTVSS
VL: QAVVTQEPSLTVSPGGTVTLTCRSSTGAVTTSNYANWVQQKPGQAPRGLIGGTNKRAPGVPARFSGSLLGGKAALTLSGAQPEDEAEYYCALWYSNLWVFGQGTKVEIKR
notes: Humanized SP34, IgG1/kappa; positive control for the CD3 arm

Each binder was assayed against T1, MUC17-ECD-His蛋白 (human, UniProt Q685J3 26-4393) (assay: ELISA, MUC17-ECD-His coated at 500 ng/mL, HRP goat anti-human Fc).
T1 construct: extracellular domain; Made in HEK-293E; the signal peptide added at the N-terminus is not part of the purified protein; also called MUC17抗原

EC 50 | Binder
0.0893 nM | B1

Each binder was assayed against T2, Human CD3 epsilon&CD3 delta Heterodimer Protein (human, UniProt P07766 23-126; P04234 22-105) (assay: ELISA, CD3 epsilon/delta heterodimer coated at 50 ng/mL, HRP goat anti-human Fc).
T2 construct: Bought heterodimer; also called Human CD3 epsilon&CD3 delta Heterodimer蛋白; CD3抗原
T2 sequence (P07766 23-126, stated change not applied, chain 1 of 2): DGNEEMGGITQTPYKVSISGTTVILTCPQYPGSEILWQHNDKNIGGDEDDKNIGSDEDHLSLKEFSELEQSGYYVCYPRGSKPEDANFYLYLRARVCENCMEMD
T2 sequence (P04234 22-105, stated change not applied, chain 2 of 2): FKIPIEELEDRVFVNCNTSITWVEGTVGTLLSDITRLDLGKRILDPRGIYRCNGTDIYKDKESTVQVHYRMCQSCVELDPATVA

binding result | Binder
binds | B2
binds | B3
binds | B4
binds | B5
binds | B6

These binders were tested against CD3 (CD3-TCR complex) on Promega PD1 effector cells (Jurkat T cells) (human) (assay: cell-based or functional assay).

EC 50 | Top | Binder
0.646 nM | 42300 | B2
1.41 nM | 80500 | B3
1.17 nM | 76700 | B4
1.11 nM | 45800 | B5
0.73 nM and 0.624 nM | – | B6

The binders below were run against T3, MUC17 on LS174T cells (human, UniProt Q685J3 26-4493) (assay: flow cytometry on LS174T cells, PE goat anti-human Fc).

binding result | Binder
binds | B2
binds | B4
binds | B5

What follows are binders tested against T3, MUC17 on LS174T cells (assay: cell-based or functional assay).

IC 50 (CD3+T细胞杀伤LS174T细胞, CellTiter-Glo) | Binder
0.28 nM | B3
